Patent US6528633

Columns and labels:
[1] = test system: clam E3-C/cyclosome complex, activated, partially purified
[2] = test system: non-specific ubiquitin-protein ligase (E3) from clam oocyte Fraction 1A

Sequence of recombinant human Ubc4 homolog, UbcH5 (chain, as listed by the source): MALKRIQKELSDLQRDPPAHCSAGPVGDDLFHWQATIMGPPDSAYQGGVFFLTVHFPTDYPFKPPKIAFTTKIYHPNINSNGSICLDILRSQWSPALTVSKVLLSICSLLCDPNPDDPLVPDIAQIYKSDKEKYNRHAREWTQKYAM

recombinant human Ubc4 homolog, UbcH5
stimulation of cyclin-ubiquitin ligation [1]: UbcH5 caused some stimulation of cyclin-ubiquitin ligation by the clam E3-C/cyclosome complex, but the amount of conjugates formed and their size ... were much lower than those obtained with the recombinant clam protein
ligation of 125I-ubiquitin to high molecular weight conjugates [2]: UbcH5 strongly stimulated the ligation of 125I-ubiquitin to high molecular weight conjugates in the presence of non-specific E3 from clam oocytes
